Data published in patent publication US20240192215A1 (E AND S HEALTHCARE, published 2024).

Assays:
Peptide_004 [1] = target: T1, Peptide_004 (human); experiment: peptide microarray, head 0.08 ug (text 0.008 ug/mL)
T1 construct: 15-mer on microarray; not native form, recombinant insert region
T1 peptide: AADVHSQHHHHHHHH
Method: (§1) 5, 1, 0.2, 0.04, 0.008 and 0.0016 μg/mL serial dilutions were incubated on a single multi-well microarray slide at 30° C. for 1 hour. The slide includes 21 individual mini-arrays (one mini-array per sample dilution).
(§2) DyLight 650 was used as a label. False-positive binding to a peptide was evaluated by performing one additional control incubation in which only a secondary antibody was applied on the same microarray slide. Before performing each step, the microarrays were washed with a washing buffer.

Peptide_004 [2] = target: T1, Peptide_004; experiment: peptide microarray, 0.04 ug/mL
Method: as §1, §2

Peptide_024 [3] = target: T2, Peptide_024 (human); experiment: peptide microarray, head 0.08 ug (text 0.008 ug/mL)
T2 construct: 15-mer of hTrx1 on microarray
T2 peptide: SKTAFQEALDAAGDK
Method: as §1, §2

Peptide_019 [4] = target: T3, Peptide_019 (human); experiment: as above
T3 construct: 15-mer of hTrx1 on microarray
T3 peptide: VKQIESKTAFQEALD
Method: as §1, §2

Peptide_086 [5] = target: T4, Peptide_086 (human); experiment: as above
T4 construct: 15-mer of hTrx1 on microarray
T4 peptide: CEVKCMPTFQFFKKG
Method: as §1, §2

Peptide_092 = target: T5, Peptide_092 (human); experiment: as above
T5 construct: 15-mer of hTrx1 on microarray
T5 peptide: PTFQFFKKGQKVGEF
Method: as §1, §2

Peptide_015 [6] = target: T6, Peptide_015 (human); experiment: as above
T6 construct: 15-mer on microarray; not native form, includes recombinant insert region
T6 peptide: HHHHVKQIESKTAFQ
Method: as §1, §2

Peptide_045 [7] = target: T7, Peptide_045 (human); experiment: as above
T7 construct: 15-mer of hTrx1 on microarray
T7 peptide: SATWCGPCKMIKPFF
Method: as §1, §2

Peptide_084 [8] = target: T8, Peptide_084 (human); experiment: as above
T8 construct: 15-mer of hTrx1 on microarray
T8 peptide: SECEVKCMPTFQFFK
Method: as §1, §2

Peptide_093 [9] = target: T9, Peptide_093 (human); experiment: as above
T9 construct: 15-mer of hTrx1 on microarray
T9 peptide: TFQFFKKGQKVGEFS
Method: as §1, §2

Peptide_013 = target: T10, Peptide_013 (human); experiment: as above
T10 construct: 15-mer on microarray; not native form, includes recombinant insert region
T10 peptide: HHHHHHVKQIESKTA
Method: as §1, §2

Peptide_085 [10] = target: T11, Peptide_085 (human); experiment: as above
T11 construct: 15-mer of hTrx1 on microarray
T11 peptide: ECEVKCMPTFQFFKK
Method: as §1, §2

Peptide_095 = target: T12, Peptide_095 (human); experiment: as above
T12 construct: 15-mer of hTrx1 on microarray
T12 peptide: QFFKKGQKVGEFSGA
Method: as §1, §2

Peptide_018 [11] = target: T13, Peptide_018 (human); experiment: as above
T13 construct: 15-mer on microarray; not native form, includes recombinant insert region; also called HVKQIESKTAFQEAL
T13 peptide: HVKQIESKTAFQEAL
Method: as §1, §2

Peptide_020 [12] = target: T14, Peptide_020 (human); experiment: as above
T14 construct: 15-mer of hTrx1 on microarray
T14 peptide: KQIESKTAFQEALDA
Method: as §1, §2

Peptide_022 [13] = target: T15, Peptide_022 (human); experiment: as above
T15 construct: 15-mer of hTrx1 on microarray
T15 peptide: IESKTAFQEALDAAG
Method: as §1, §2

Peptide_025 [14] = target: T16, Peptide_025 (human); experiment: as above
T16 construct: 15-mer of hTrx1 on microarray
T16 peptide: KTAFQEALDAAGDKL
Method: as §1, §2

Peptide_012 = target: T17, Peptide_012 (human); experiment: as above
T17 construct: 15-mer on microarray; not native form, includes recombinant insert region
T17 peptide: HHHHHHHVKQIESKT
Method: as §1, §2

Peptide_094 = target: T18, Peptide_094 (human); experiment: as above
T18 construct: 15-mer of hTrx1 on microarray
T18 peptide: FQFFKKGQKVGEFSG
Method: as §1, §2

Peptide_023 = target: T19, Peptide_023 (human); experiment: as above
T19 construct: 15-mer of hTrx1 on microarray
T19 peptide: ESKTAFQEALDAAGD
Method: as §1, §2

Peptide_051 [15] = target: T20, Peptide_051 (human); experiment: as above
T20 construct: 15-mer of hTrx1 on microarray
T20 peptide: PCKMIKPFFHSLSEK
Method: as §1, §2

Peptide_014 [16] = target: T21, Peptide_014 (human); experiment: as above
T21 construct: 15-mer on microarray; not native form, includes recombinant insert region
T21 peptide: HHHHHVKQIESKTAF
Method: as §1, §2

Peptide_024 [17] = target: T2, Peptide_024; experiment: peptide microarray, 0.04 ug/mL
Method: as §1, §2

Peptide_019 [18] = target: T3, Peptide_019; experiment: peptide microarray, 0.04 ug/mL
Method: as §1, §2

Peptide_086 [19] = target: T4, Peptide_086; experiment: peptide microarray, 0.04 ug/mL
Method: as §1, §2

Peptide_015 [20] = target: T6, Peptide_015; experiment: peptide microarray, 0.04 ug/mL
Method: as §1, §2

Peptide_045 [21] = target: T7, Peptide_045; experiment: peptide microarray, 0.04 ug/mL
Method: as §1, §2

Peptide_084 [22] = target: T8, Peptide_084; experiment: peptide microarray, 0.04 ug/mL
Method: as §1, §2

Peptide_093 [23] = target: T9, Peptide_093; experiment: peptide microarray, 0.04 ug/mL
Method: as §1, §2

Peptide_085 [24] = target: T11, Peptide_085; experiment: peptide microarray, 0.04 ug/mL
Method: as §1, §2

Peptide_018 [25] = target: T13, Peptide_018; experiment: peptide microarray, 0.04 ug/mL
Method: as §1, §2

Peptide_020 [26] = target: T14, Peptide_020; experiment: peptide microarray, 0.04 ug/mL
Method: as §1, §2

Peptide_022 [27] = target: T15, Peptide_022; experiment: peptide microarray, 0.04 ug/mL
Method: as §1, §2

Peptide_025 [28] = target: T16, Peptide_025; experiment: peptide microarray, 0.04 ug/mL
Method: as §1, §2

Peptide_021 = target: T22, Peptide_021 (human); experiment: peptide microarray, 0.04 ug/mL
T22 construct: 15-mer of hTrx1 on microarray
T22 peptide: QIESKTAFQEALDAA
Method: as §1, §2

Peptide_051 [29] = target: T20, Peptide_051; experiment: peptide microarray, 0.04 ug/mL
Method: as §1, §2

Peptide_014 [30] = target: T21, Peptide_014; experiment: peptide microarray, 0.04 ug/mL
Method: as §1, §2

B1: monoclonal antibody B266-1 (antibody, human IgG1)
light: QIVLTQSPAIMSASPGEKVTMTCSASSRISYMYWYQQKPGTSPKRWIYDTSKLASGVPARFSGSGSGTSYSLTISTMEAEDAATYYCHQRSSYPTFGAGTKLELKSVAAPSVFIFPPSDEQLKSGTASVVCLLNNFYPREAKVQWKVDNALQSGNSQESVTEQDSKDSTYSLSSTLTLSKADYEKHKVYACEVTHQGLSSPVTKSFNRGEC
heavy: not shown
notes: B266 with the Fc part changed to human IgG1; also called B266-1 (Trx1-hIgG1); B266-1 (hTrx1-hIgG1)
signal (blank-control = 1) (Peptide_004 [1]): 1
signal (blank-control = 1) (Peptide_004 [2]): 1.14

B2: monoclonal antibody B264 (antibody, mouse IgG1, kappa, V domains shown)
VH: QVQLQQSGAELARPGASVKMSCKASGYTFTSYTMHWVKQRPGQGLEWIGYINPTSDYTNYNQKFKDKATLTADKSSSTAYMQLSSLTSEDSAVYFCASEGGFLYYFDYWGQGTTLTVSS
VL: DVLMTQTPLSLPVSLGDQASISCRSSQSIVHSNGNTYLEWYLQKPGQSPKLLIYKVSNRFSGVPDRFSGSGSGTDFTLKISRVEAEDLGVYYCFQGSHVPYTFGGGTKLEIKR
notes: also called AB264; B264 (Trx1-mIgG1)
signal (blank-control = 1) (Peptide_024 [3]): 1
signal (blank-control = 1) (Peptide_019 [4]): 1.02
signal (blank-control = 1) (Peptide_086 [5]): 1.02
signal (blank-control = 1) (Peptide_092): 3.07
signal (blank-control = 1) (Peptide_015 [6]): 0.79
signal (blank-control = 1) (Peptide_045 [7]): 5.89
signal (blank-control = 1) (Peptide_084 [8]): 1.33
signal (blank-control = 1) (Peptide_093 [9]): 1.53
signal (blank-control = 1) (Peptide_013): 0.95
signal (blank-control = 1) (Peptide_085 [10]): 0.9
signal (blank-control = 1) (Peptide_095): 1.15
signal (blank-control = 1) (Peptide_018 [11]): 0.85
signal (blank-control = 1) (Peptide_020 [12]): 0.8
signal (blank-control = 1) (Peptide_022 [13]): 1
signal (blank-control = 1) (Peptide_025 [14]): 1.03
signal (blank-control = 1) (Peptide_012): 0.88
signal (blank-control = 1) (Peptide_094): 1
signal (blank-control = 1) (Peptide_023): 0.91
signal (blank-control = 1) (Peptide_051 [15]): 0.7
signal (blank-control = 1) (Peptide_014 [16]): 1.14
signal (blank-control = 1) (Peptide_024 [17]): 2.38
signal (blank-control = 1) (Peptide_019 [18]): 1.2
signal (blank-control = 1) (Peptide_086 [19]): 1.14
signal (blank-control = 1) (Peptide_015 [20]): 1.69
signal (blank-control = 1) (Peptide_045 [21]): 4.59
signal (blank-control = 1) (Peptide_084 [22]): 1.83
signal (blank-control = 1) (Peptide_093 [23]): 2.46
signal (blank-control = 1) (Peptide_085 [24]): 1.48
signal (blank-control = 1) (Peptide_018 [25]): 1.64
signal (blank-control = 1) (Peptide_020 [26]): 1.33
signal (blank-control = 1) (Peptide_022 [27]): 2.89
signal (blank-control = 1) (Peptide_025 [28]): 2.39
signal (blank-control = 1) (Peptide_021): 1.35
signal (blank-control = 1) (Peptide_051 [29]): 1.41
signal (blank-control = 1) (Peptide_014 [30]): 1.49
